Where a chain is given by its changes, count along the chain named.
Target: T1, human VISTA on the surface of cells (human, UniProt Q9H7M9 33-295)
T1 sequence: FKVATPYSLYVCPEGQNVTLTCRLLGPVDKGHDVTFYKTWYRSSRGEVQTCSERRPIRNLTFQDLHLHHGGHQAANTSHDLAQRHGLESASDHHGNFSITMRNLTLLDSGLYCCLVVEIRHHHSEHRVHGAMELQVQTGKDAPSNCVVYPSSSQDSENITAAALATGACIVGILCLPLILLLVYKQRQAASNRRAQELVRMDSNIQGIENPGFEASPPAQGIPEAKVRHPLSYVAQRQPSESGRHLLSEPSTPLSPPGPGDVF
Test: cell-based or functional assay

B1: VSTB50 (antibody, human IgG1, V domains shown)
VH: QVQLVQSGSELKKPGASVKVSCKASGYTFTNYGLNWVRQAPGQGLEWMGWINPYTGEPTYADDFKGRFVFSLDTSVSTAYLQICSLKAEDTAVYYCAREGYGNYIFPYWGQGTLVTVSS
VL: DIVMTQTPLSLSVTPGQPASISCRASESVDTYANSLMHWYLQKPGQPPQLLIYRASNLESGVPDRFSGSGSGTDFTLKISRVEAEDVGVYYCQQTNEDPRTFGQGTKLEIK
IC50, CPM (proliferation), SEB assay: -0.74 log10 of antibody concentration | IC50, Gamma (IFN-g), SEB assay: 1.69 log10 of antibody concentration

B2: VSTB53 (antibody, human IgG1, V domains shown)
VH: QVQLVQSGAEVKKPGASVKVSCKASGYTFTHYTIHWVRQAPGQGLEWMGYIIPSSGYSEYNQKFKDRVTMTRDTSTSTVYMELSSLRSEDTAVYYCARGAYDDYYDYYAMDYWGQGTLVTVSS
VL: DIVMTQSPLSLPVTPGEPASISCRSSQTIVHSNGNTYLEWYLQKPGQSPQLLIYKVSNRFSGVPDRFSGSGSGTDFTLKISRVEAEDVGVYYCFQASHVPWTFGQGTKLEIK
IC50, CPM (proliferation), SEB assay: -1.06 log10 of antibody concentration | IC50, Gamma (IFN-g), SEB assay: -1.05 log10 of antibody concentration

B3: VSTB95 (antibody, human IgG1, V domains shown)
VH: EVQLVESGGGLVQPGGSLRLSCAASGFTFRNYGMSWVRQAPGKGLEWVASIISGGSYTYYPDSVKGRFTISRDNAKNSLYLQMNSLRAEDTAVYYCARIYDHDGDYYAMDYWGQGTTVTVSS
VL: B2 VL with T28S, A96G
IC50, CPM (proliferation), SEB assay: -1.12 log10 of antibody concentration | IC50, Gamma (IFN-g), SEB assay: 0.05 log10 of antibody concentration

B4: VSTB116 (antibody, V domains shown)
VH: QVQLVQSGAEVKKPGSSVKVSCKASGGTFSSYAISWVRQAPGQGLEWMGGIIPIFGTANYAQKFQGRVTITADESTSTAYMELSSLRSEDTAVYYCARSSYGWSYEFDYWGQGTLVTVSS
VL: DIQMTQSPSSLSASVGDRVTITCRASQSINTNLNWYQQKPGKAPKLLIYAASSLQSGVPSRFSGSGSGTDFTLTISSLQPEDFATYYCQQARDTPITFGQGTKVEIKR
IC50, CPM (proliferation), SEB assay: -1.44 log10 of antibody concentration | IC50, Gamma (IFN-g), SEB assay: -0.35 log10 of antibody concentration
